Laboratory results reported in patent US20230287068A1, “KERATIN BD-6, PREPARATION METHOD THEREFOR AND PHARMACEUTICAL COMPOSITION AND USE THEREOF” (INSTITUTE OF MATERIAL MEDICA, CHINESE ACADEMY OF MEDICAL …, priority 2019, published 2023).

Assays:
[1] = test system: PTZ-induced epilepsy in mice; assay: Pentylenetetrazole (PTZ) induced epilepsy in mice; format: in vivo, ICR mice; settings: for Cases of deaths / Grade IV seizure rate / mortality rate / Cases of Grade IV / Grade III seizure incubation period / Grade IV seizure incubation period: PTZ 65 mg/kg i.p.; for Cases of deaths / Grade IV seizure rate / mortality rate / Cases of Grade IV: 10 mice; for Cases of Grade IV: 15 min observation; for Grade III seizure incubation period / Grade IV seizure incubation period: mean±SEM; for Grade IV seizure incubation period: maximum 900 seconds
Experimental: • Animals: male ICR mice; • Medicines: Pentylenetetrazol (PTZ), Retigabine, Protein BD-6. • Experiment grouping: • Model group; • Retigabine 60 mg/kg group; • Protein BD-6, 50 mg/kg group, 200 mg/kg group;
The drug was administered once in the afternoon the day before modeling, On the day of modeling, PTZ-65 mg/kg (modeling agent) was injected intraperitoneal 1 hour after the test drug was administered intragastrically, and the positive drug can be administered once half an hour before modeling. Continue to observe for 15 minutes after injection of PTZ.
Observation index: ①Seizure situation: the time of seizures from Grade III to Grade VI; ②Death situation
(§1) Seizure grade: Refer to Racine grading standard: Grade 0: No response; Grade I: manifested as twitching of facial muscles or the corners of the mouth; Grade II: can nod; Grade III: twitching of one limb; Grade IV: rigidity or body twitching; Grade V: generalized epilepsy (generalized tonic seizures).
Count the cases of seizures and deaths in each group of mice in the experiment; Grade III and IV incubation period. The incubation period of mice that have not attacked to Grade IV is recorded as the maximum of 900 seconds. Chi-square test was used for statistics of the number of cases. Calculate the mean and standard error of the incubation period. Use TTEST to compare the model group with other groups, and P<0.05 is considered as a significant difference.

[2] = test system: lipopolysaccharide (LPS) induced fever model in rats; assay: Lipopolysaccharide (LPS) induced fever model in SD rats; format: in vivo; settings: for Body temperature 2 hours after modeling / Body temperature 4 hours after modeling / Body temperature 6 hours after modeling / Body temperature 8 hours after modeling: LPS 20 µg/kg i.p., SD rats
Experimental: • Animals: 230-260 grams of male SD rats; • Drugs: lipopolysaccharide (LPS, SIGMAL-2880), aspirin (SIGMAA2093), protein BD-6; • Instruments: electronic balance (SARTORIUS BP121S type), electronic clinical thermometer (CITIZEN CT-513W type). • Experiment grouping: • Normal control group; • Model group: lipopolysaccharide fever model; • Positive control group: Aspirin 300 mg/kg group; • Protein BD-6, 10 mg/kg group, 50 mg/kg group.
Method: the method of intraperitoneal injection of Lipopolysaccharide to replicate rat fever model.
Preparation of experimental animals: After the experimental animals adapt to the experimental environment (temperature 22° C.±2° C., relative humidity 50%±2%) for 1 day. Pre-adaptation to measure rectal temperature at 8:00 and 15:00, rats were fasted and water was taken freely 12 h before experiment, and let the animal to empty its feces before measuring the rectal temperature. Apply petroleum jelly to the electronic thermometer probe before each temperature measurement. Insert the rat rectum 2 cm (can be marked at 2 cm to ensure that the depth of each insertion is consistent), and record the body temperature after the reading is stable.
Intraperitoneal injection of lipopolysaccharide to replicate rat fever model: The body temperature of the rats was measured before modeling. Qualified rats with a body temperature of 36.2-37.3° C. were selected and randomly divided into groups with 8 rats in each group. After oral administration of aspirin and different doses of protein BD-6, lipopolysaccharide (20 µg/kg, 2 ml/kg) was injected intraperitoneally immediately, and the normal control group was injected intraperitoneally with an equal volume of normal saline. The body temperatures of the rats were monitored after 2 hours for a total of 8 hours.
According to the body temperature measured at each time point on the day of the experiment, calculate the mean, standard deviation and standard error of the body temperature of each group of rats. The data of each group was compared with TTEST, and P<0.05 was considered as a significant difference.

[3] = test system: PLO-induced epilepsy in mice; assay: Pilocarpine (PLO) induced convulsive epilepsy in mice; format: in vivo, ICR mice; set-up: mortality rate: unit not given here; settings: for Cases of deaths / Grade IV seizure rate / mortality rate / Cases of Grade IV / Grade II seizure incubation period / Grade III seizure incubation period / Grade IV seizure incubation period: PLO 225 mg/kg i.p.; for Cases of deaths / Grade IV seizure rate / mortality rate / Cases of Grade IV: 10 mice; for Cases of Grade IV: 30 min observation; for Grade II seizure incubation period / Grade III seizure incubation period / Grade IV seizure incubation period: mean±SEM; for Grade IV seizure incubation period: maximum 1800 seconds
Experimental: • Animals: male ICR mice; • Drugs: Pilocarpine HCl (PLO, pilocarpine, pilocarpine hydrochloride), Diazepam (diazepam tablets), protein BD-6. • Experiment grouping: • Model group: • Diazepam 2 mg/kg group; • Protein BD-6, 50 mg/kg group, 200 mg/kg group.
The drug was administered once in the afternoon the day before modeling, PLO-225 mg/kg (modeling agent) was injected intraperitoneally 1 hour after the test drug was administered intragastrically on the day of modeling. And positive drug can be administered once 20 minutes before modeling. Observe for 30 minutes after PLO injection.
Observation indicators: ①Seizure situation: the time of seizures from Grade II to Grade IV; ②the time to death.
as §1
Count the number of Grade IV seizures and deaths in each group of mice in the experiment; Grade II, III and IV incubation period. […] Chi-square test was used for statistics of the number of cases. The mean value and standard error of the incubation period were calculated, and TTEST was used to compare the model group with other groups. P<0.05 was considered as a significant difference.

B1: BD-6: recombinant keratin with the amino acid sequence SEQ ID NO:1, expressed in E. coli, about 45 kD; protein of Example 4 (protein, listed as Bos taurus)
chain: MTTTIRHFSSGSIKGSSGLAGGSSRSCRVSGSLGGGSCRLGSAGGLGSGLGGSSYSSCYSFGSGGSYGSGGYVSGGYGGGFGGVDGLLVGGEKATMQNLNDRLASYLDKVRALEEANTELELKIRDWYQKQAPGPAPDYSSYFKTIEDLRNKIHTATVDNANLLLQIDNARLAADDFRTKFETEQALRVSVEADINGLRRVLDELTLARADLEMQIENLKEELAYLRKNHEEEMKALRGQVGGEINVEMDAAPGVDLSRILNEMRDQYEKMAEKNRKDAEDWFFSKTEELNREVATNSELVQSGKSEISELRRTLQALEIELQSQLSMKASLEGSLAETENRYCMQLSQIQGLIGSVEEQLAQLRCEMEQQNQEYKILLDVKTRLEQEIATYRRLLEGEDAHLTQYKTKEPVTTRQVRTIVEEVQDGRVISSREQVHQTSH
In the case of B1, the “Incubation period of Grade III epilepsy vs model group (in words)” value ([1]; BD-6 50 mg/kg and 200 mg/kg, PTZ model) is reported as “have statistical differences compared with the model group”, the Cases of deaths ([1]; BD-6 50 mg/kg intragastric) is reported as 0 and the “Grade IV seizure rate” value ([1]; BD-6 50 mg/kg intragastric) is reported as 60%. For the same molecule, the mortality rate ([1]; BD-6 50 mg/kg intragastric) was 0%, the “Cases of Grade IV” value ([1]; BD-6 50 mg/kg intragastric) was 6 and the “Grade III seizure incubation period” value ([1]; BD-6 50 mg/kg intragastric) was 74±5^∗∗ s. The “Grade IV seizure incubation period” value ([1]; BD-6 50 mg/kg intragastric) was 440 ± 128 s, the Cases of deaths ([1]; BD-6 200 mg/kg intragastric) was 1 and the “Grade IV seizure rate” value ([1]; BD-6 200 mg/kg intragastric) was 90%. For the same molecule, the mortality rate ([1]; BD-6 200 mg/kg intragastric) was 10%, the “Cases of Grade IV” value ([1]; BD-6 200 mg/kg intragastric) was 9 and the “Grade III seizure incubation period” value ([1]; BD-6 200 mg/kg intragastric) was 69±6^∗ s. For the same molecule, the “Grade IV seizure incubation period” value ([1]; BD-6 200 mg/kg intragastric) was 201 ± 81 s, the “Body temperature 2 hours after modeling” value ([2]; BD-6 10 mg/kg oral) was 37.1±0.2 °C and the “Body temperature 4 hours after modeling” value ([2]; BD-6 10 mg/kg oral) was 37.4±0.2 °C. For the same molecule, the “Body temperature 6 hours after modeling” value ([2]; BD-6 10 mg/kg oral) was 37.3±0.2 °C, the “Body temperature 8 hours after modeling” value ([2]; BD-6 10 mg/kg oral) was 37.2±0.2 °C and the “Body temperature 2 hours after modeling” value ([2]; BD-6 50 mg/kg oral) was 37.2±0.1 °C. The “Body temperature 4 hours after modeling” value ([2]; BD-6 50 mg/kg oral) was 37.5±0.2 °C, the “Body temperature 6 hours after modeling” value ([2]; BD-6 50 mg/kg oral) was 37.4±0.2 °C and the “Body temperature 8 hours after modeling” value ([2]; BD-6 50 mg/kg oral) was 37.4±0.2 °C. For the same molecule, the “Effect on body temperature (in words)” value ([2]; BD-6 10 and 50 mg/kg, 2 hours after modeling, P<0.05 vs model group) was “can reduce the body temperature of the model rats to different degrees”, the Cases of deaths ([3]; BD-6 50 mg/kg intragastric) was 0 and the “Grade IV seizure rate” value ([3]; BD-6 50 mg/kg intragastric) was 40%. For the same molecule, the mortality rate ([3]; BD-6 50 mg/kg intragastric) was 0, the “Cases of Grade IV” value ([3]; BD-6 50 mg/kg intragastric) was 4 and the “Grade II seizure incubation period” value ([3]; BD-6 50 mg/kg intragastric) was 110±7^∗ s. The “Grade III seizure incubation period” value ([3]; BD-6 50 mg/kg intragastric) was 169±9^∗ s, the “Grade IV seizure incubation period” value ([3]; BD-6 50 mg/kg intragastric) was 1439±155^∗ s and the “Incubation period of epilepsy Grade II, III and IV vs model group (in words)” value ([3]; BD-6 50 mg/kg, PLO model) was “statistically different from the model group”. The Cases of deaths ([3]; BD-6 200 mg/kg intragastric) was 0, the “Grade IV seizure rate” value ([3]; BD-6 200 mg/kg intragastric) was 50% and the mortality rate ([3]; BD-6 200 mg/kg intragastric) was 0. The “Cases of Grade IV” value ([3]; BD-6 200 mg/kg intragastric) was 5, the “Grade II seizure incubation period” value ([3]; BD-6 200 mg/kg intragastric) was 99 ± 6 s and the “Grade III seizure incubation period” value ([3]; BD-6 200 mg/kg intragastric) was 157 ± 8 s. The “Grade IV seizure incubation period” value ([3]; BD-6 200 mg/kg intragastric) was 1279 ± 181 s.
